What was measured:
[1] = target: L-arabinose isomerase from Lactobacillus reuteri DSMZ 17509 (Lactobacillus reuteri); assay: SEC; 190 mL Sephacryl S300 column, 50 mM potassium phosphate buffer pH 7.0, 150 mM NaCl; molecular weight marker kit for gel filtration; oligomer size from the apparent mass against the calculated subunit mass
[2] = target: the molecule itself; assay: as above

| stoichiometry N [1] | Molecule | stoichiometry N [2] |
| --- | --- | --- |
| 6 | L-arabinose isomerase from Lactobacillus reuteri DSMZ 17509 (enzyme) |  |
|  | D-xylose isomerase from Lactobacillus reuteri DSMZ 17509 (enzyme, UniProt Q5QG16 1-449, looked up) MADLWNNIDKIEYEGPHKSIKSGLFYQYYNPDEVILGKKMKDWLRFSVAYWHTFDQRLVDPFGDGTAQRPYDKYSDPMDCALAKVDYAFEFYNKLGVDFLCFHDRDLAPEGDTLRETNKNLDRVVDKIVEYQKATGMKVLWNTSNLFTNPRFLEGAGTAPSAEIYAYAAAQLKHSLEVGKRVGSENYVFWGGREGYESLWNTDMKREQSHIAKFFHMAKDYANEIGFDAQMLLEPKPKEPTTHQYDFDAATTINFMCEYGLDKDFKLNLEGNHANLAGHTYQHEIRVAREAGLLGSLDANQGDKLIGWDIDEYPSNLYETTAAMWEVIQNGSIGPRGGLNFDAKPRRTSFKPVDLFYGHIVGMDSFAAGLRVAAAMKEDGFLDDIIKERYSTWDEGLGKSIEDGNENFASLEEKVIDTPQSELLAATHSDHLEEIKDTINHYMIETLAK | 4 |

From publication PMC3931408 (Journal of Agricultural and Food Chemistry, 2014)
